Reference: patent US20130058934A1 (Novartis, published 2013)

Experiments:
[1] = target: T1, human LRP6 (human, UniProt O75581 20-1613); experiment: FACS on HEK293T/17 cells, endogenous human LRP6
T1 construct: whole, on cells; Endogenous LRP6 on human cells (PA1, HEK293T/17); also called endogenous LRP6 on PA1 cells and HEK293T/17 cells
Method: (§1) Cross-species reactivity to murine and cynomologus LRP6 was determined on cells by FACS analysis. FACS staining was performed essentially as described above. Human U266 cells (no expression of LRP6) were used as a negative control.
(§2) To show cross-reactivity, cells expressing endogenous LRP6 of human (HEK293T/17) and mouse origin (NIH 3T3), or transiently transfected HEK293/T17 cells expressing cynomolgus LRP6, were treated and subjected to flow cytometry as described above.
Target sequence in this assay (O75581 20-1613): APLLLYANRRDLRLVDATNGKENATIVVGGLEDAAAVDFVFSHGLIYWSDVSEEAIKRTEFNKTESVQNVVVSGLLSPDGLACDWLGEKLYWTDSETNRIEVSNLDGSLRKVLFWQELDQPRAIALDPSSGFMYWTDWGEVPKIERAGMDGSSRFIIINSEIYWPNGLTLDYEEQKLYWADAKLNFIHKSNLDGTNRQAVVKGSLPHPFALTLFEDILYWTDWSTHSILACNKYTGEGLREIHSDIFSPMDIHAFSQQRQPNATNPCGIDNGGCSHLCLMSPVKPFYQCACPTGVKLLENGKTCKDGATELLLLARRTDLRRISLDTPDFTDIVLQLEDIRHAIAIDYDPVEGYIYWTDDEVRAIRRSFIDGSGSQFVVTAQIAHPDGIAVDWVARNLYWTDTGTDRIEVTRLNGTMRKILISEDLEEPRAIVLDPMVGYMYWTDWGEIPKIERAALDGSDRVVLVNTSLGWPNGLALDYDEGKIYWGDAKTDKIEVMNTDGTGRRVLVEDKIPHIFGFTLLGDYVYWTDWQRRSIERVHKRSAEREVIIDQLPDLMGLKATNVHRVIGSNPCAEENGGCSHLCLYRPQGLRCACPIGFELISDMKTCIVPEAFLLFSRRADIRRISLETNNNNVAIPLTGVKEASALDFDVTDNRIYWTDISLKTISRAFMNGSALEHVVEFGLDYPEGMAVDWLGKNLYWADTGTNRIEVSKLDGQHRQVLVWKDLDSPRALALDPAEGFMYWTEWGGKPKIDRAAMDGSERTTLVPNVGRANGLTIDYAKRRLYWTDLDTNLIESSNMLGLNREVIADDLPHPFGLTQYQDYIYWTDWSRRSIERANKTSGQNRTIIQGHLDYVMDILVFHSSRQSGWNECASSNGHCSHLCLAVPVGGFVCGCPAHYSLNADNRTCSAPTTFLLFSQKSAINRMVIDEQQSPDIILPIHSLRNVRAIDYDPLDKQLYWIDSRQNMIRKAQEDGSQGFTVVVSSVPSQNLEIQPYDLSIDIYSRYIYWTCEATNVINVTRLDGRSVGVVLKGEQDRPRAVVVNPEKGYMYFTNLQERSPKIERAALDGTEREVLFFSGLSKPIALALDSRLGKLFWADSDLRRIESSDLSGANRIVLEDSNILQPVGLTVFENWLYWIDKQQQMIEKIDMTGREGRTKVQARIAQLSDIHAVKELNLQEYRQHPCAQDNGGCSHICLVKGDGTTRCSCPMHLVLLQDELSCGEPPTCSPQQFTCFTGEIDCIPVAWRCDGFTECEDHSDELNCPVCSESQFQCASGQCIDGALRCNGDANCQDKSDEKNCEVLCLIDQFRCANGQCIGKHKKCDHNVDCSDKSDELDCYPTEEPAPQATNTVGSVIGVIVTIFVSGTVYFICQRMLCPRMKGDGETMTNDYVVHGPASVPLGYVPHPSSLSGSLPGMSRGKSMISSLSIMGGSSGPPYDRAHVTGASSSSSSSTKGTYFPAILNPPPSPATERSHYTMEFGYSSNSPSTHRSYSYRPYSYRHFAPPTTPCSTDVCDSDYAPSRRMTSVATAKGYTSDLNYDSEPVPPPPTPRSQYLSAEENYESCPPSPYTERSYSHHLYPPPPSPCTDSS

[2] = target: T2, mouse LRP6 (mouse, UniProt O88572 20-1613); experiment: FACS on NIH 3T3 cells, endogenous mouse LRP6
T2 construct: whole, on cells; also called murine LRP6; endogenous LRP6 on NIH 3T3 cells
T2 sequence (O88572 20-1613): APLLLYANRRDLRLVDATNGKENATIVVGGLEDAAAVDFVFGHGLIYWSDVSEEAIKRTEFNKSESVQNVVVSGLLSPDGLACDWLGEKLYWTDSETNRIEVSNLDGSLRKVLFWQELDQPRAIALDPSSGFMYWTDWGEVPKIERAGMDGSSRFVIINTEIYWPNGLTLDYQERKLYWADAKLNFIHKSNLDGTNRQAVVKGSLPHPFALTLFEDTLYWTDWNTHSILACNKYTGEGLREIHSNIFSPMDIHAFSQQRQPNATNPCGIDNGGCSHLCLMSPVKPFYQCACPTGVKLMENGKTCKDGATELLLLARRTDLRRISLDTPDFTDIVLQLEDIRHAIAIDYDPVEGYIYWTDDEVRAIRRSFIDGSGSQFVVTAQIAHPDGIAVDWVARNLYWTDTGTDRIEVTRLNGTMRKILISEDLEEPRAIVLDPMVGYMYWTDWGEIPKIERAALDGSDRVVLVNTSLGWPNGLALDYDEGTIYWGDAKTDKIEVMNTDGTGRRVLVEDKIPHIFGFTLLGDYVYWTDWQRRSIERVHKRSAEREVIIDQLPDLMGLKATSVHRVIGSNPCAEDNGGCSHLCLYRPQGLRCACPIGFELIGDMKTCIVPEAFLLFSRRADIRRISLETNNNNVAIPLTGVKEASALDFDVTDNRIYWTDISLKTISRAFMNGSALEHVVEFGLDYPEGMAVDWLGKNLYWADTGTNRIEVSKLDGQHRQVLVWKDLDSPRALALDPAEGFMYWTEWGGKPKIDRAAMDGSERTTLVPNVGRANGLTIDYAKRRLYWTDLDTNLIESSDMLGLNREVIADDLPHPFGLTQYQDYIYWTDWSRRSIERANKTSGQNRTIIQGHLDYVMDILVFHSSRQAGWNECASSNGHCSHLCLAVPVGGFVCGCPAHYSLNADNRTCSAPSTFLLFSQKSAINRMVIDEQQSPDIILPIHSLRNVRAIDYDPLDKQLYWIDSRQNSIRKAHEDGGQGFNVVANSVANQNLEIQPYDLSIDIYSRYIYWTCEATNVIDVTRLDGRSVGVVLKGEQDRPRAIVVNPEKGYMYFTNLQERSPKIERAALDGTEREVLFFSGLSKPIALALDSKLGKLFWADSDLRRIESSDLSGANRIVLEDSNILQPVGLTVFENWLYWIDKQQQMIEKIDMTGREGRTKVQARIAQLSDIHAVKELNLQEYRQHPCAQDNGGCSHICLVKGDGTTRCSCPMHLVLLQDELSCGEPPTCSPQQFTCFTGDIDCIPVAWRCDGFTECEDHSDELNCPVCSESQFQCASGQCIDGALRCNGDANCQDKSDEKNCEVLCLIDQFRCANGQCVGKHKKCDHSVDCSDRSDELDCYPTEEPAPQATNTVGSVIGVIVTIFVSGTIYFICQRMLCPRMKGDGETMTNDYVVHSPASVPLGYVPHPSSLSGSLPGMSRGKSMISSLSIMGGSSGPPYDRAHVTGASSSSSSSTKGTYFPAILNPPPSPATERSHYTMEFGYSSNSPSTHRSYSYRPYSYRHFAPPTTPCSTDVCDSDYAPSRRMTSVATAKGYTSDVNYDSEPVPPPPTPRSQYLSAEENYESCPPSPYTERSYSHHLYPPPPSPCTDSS
Method: as §1, §2

[3] = target: T1, human LRP6; experiment: cell-based or functional assay

Binder | EC50 [1] [nM] | EC50 [2] [nM] | IC50 by STF assay for Wnt3a inhibition [3] [nM] | IC50 by STF assay for Wnt1 inhibition [3] [nM]
MOR06706 Fab (Fab, V domains shown, also called Propeller 1 anti-LRP6 Fab MOR06706) VH: QVQLVESGGGLVQPGGSLRLSCAASGFTFSDYAIHWVRQAPGKGLEWVSGISYSGSSTHYADSVKGRFTISRDNSKNTLYLQMNSLRAEDTAVYYCARGSHGNIMAKRYFDFWGQGTLVTVSS VL: DIELTQPPSVSVAPGQTARISCSGDNIRKKYVYWYQQKPGQAPVLVIYEDSKRPSGIPERFSGSNSGNTATLTISGTQAEDEADYYCSTADSGINNGVFGGGTKLTVL | 0.14 |  |  | 
MOR08545 Fab (Fab, V domains shown, also called Propeller 1 anti-LRP6 Fab MOR08545) VH: QVQLVESGGGLVQPGGSLRLSCAASGFTFSVNGMHWVRQAPGKGLEWVSVIDGMGHTYYADSVKGRFTISRDNSKNTLYLQMNSLRAEDTAVYYCARYDYIKYGAFDPWGQGTLVTVSS VL: DIELTQPPSVSVAPGQTARISCSGDNIGSKYVHWYQQKPGQAPVLVIYGDSNRPSGIPERFSGSNSGNTATLTISGTQAEDEADYYCTRTSTPISGVFGGGTKLTVLG | 0.09 | 0.06 |  | 
scFv MOR06475 (scFv, V domains shown) VH: QVQLKESGPALVKPTQTLTLTCTFSGFSLSNRGGGVGWIRQPPGKALEWLAWIDWDDDKSYSTSLKTRLTISKDTSKNQVVLTMTNMDPVDTATYYCARMHLPLVFDSWGQGTLVTVSS VL: DIVLTQSPATLSLSPGERATLSCRASQFIGSRYLAWYQQKPGQAPRLLIYGASNRATGVPARFSGSGSGTDFTLTISSLEPEDFATYYCQQYYDYPQTFGQGTKVEIK |  |  | 1.48 | 
MOR08193 Fab (Fab, V domains shown, also called Propeller 3 anti-LRP6 Fab MOR08193) VH: QVQLKESGPALVKPTQTLTLTCTFSGFSLSNRGGGVGWIRQPPGKALEWLAWIDWDDDKSYSTSLKTRLTISKDTSKNQVVLTMTNMDPVDTATYYCARMHLPLVFDSWGQGTLVTVSS VL: DIVLTQSPATLSLSPGERATLSCRASQFIGSRYLAWYQQKPGQAPRLLIYGASNRATGVPARFSGSGSGTDFTLTISSLEPEDFAVYYCQQYWSIPITFGQGTKVEIKR | 0.36 | 0.08 |  | 
MOR08473 Fab (Fab, V domains shown, also called Propeller 3 anti-LRP6 Fab MOR08473) VH: QVQLVESGGGLVQPGGSLRLSCAASGFTFSSYGMSWVRQAPGKGLEWVSNISNDGHYTYYADSVKGRFTISRDNSKNTLYLQMNSLRAEDTAVYYCARFQASYLDIMDYWGQGTLVTVSS VL: DIELTQPPSVSVAPGQSITISCSGDNIGSKYVHWYQQKPGQAPVLVIYNDSNRPSGIPERFSGSNSGNTATLTISGTQAEDEADYYCQAWGDNGTRVFGGGTKLTVLG | 0.74 | 0.46 |  | 
scFv08168-D4 (scFv, not shown: small tags and cut ends) scFv: QVQLVESGGGLVQPGGSLRLSCAASGFTFSDYVMNWVRQAPGKGLEWVSSISWSGVNTHYADSVKGRFTISRDNSKNTLYLQMNSLRAEDTAVYYCARLGATANNIRYKFMDVWGQGTLVTVSSGGGGSGGGGSGGGGSDIELTQPPSVSVAPGQTARISCSGDSLRNKVYWYQQKPGQAPVLVIYKNNRPSGIPERFSGSNSGNTATLTISGTQAEDEADYYCQSYDGQKSLVFGGGTKLTVL |  |  |  | 5.56
scFv08168-D2 (scFv, not shown: small tags and cut ends) scFv: QVQLVESGGGLVQPGGSLRLSCAASGFTFSDYVFNWVRQAPGKGLEWVAGISWSGVNTHYADSVKGRFTISRDNSKNTLYLQMNSLRAEDTAVYYCARLGATANNIRYKFMDVWGQGTLVTVSSGGGGSGGGGSGGGGSDIELTQPPSVSVAPGQTARISCSGDSLRNKVYWYQQKPGQAPVLVIYKNNRPSGIPERFSGSNSGNTATLTISGTQAEDEADYYCQSYDGQKSLVFGGGTKLTVL |  |  |  | 2.59
MOR08168 Fab (Fab, V domains shown, HuCAL Fab expressed in E. coli from pMORPH X9/X11 FH vectors and purified by Ni-NTA; also called Propeller 1 anti-LRP6 Fab MOR08168) VH: QVQLVESGGGLVQPGGSLRLSCAASGFTFSDYVINWVRQAPGKGLEWVSGISWSGVNTHYADSVKGRFTISRDNSKNTLYLQMNSLRAEDTAVYYCARLGATANNIRYKFMDVWGQGTLVTVSS VL: DIELTQPPSVSVAPGQTARISCSGDSLRNKVYWYQQKPGQAPVLVIYKNNRPSGIPERFSGSNSGNTATLTISGTQAEDEADYYCQSYDGQKSLVFGGGTKLTVL | 0.28 | 0.12 |  | 
